According to patent US11767343B2, “Peptide probe for recognition of G-quadruplex and use thereof in detection of G-quadruplex in cell” (Changzhi Medical College, priority 2020, dated 2023):

Molecular target: TB-1
Assay: ELISA binding of G4P to immobilized biotinylated oligonucleotide
Details: G4, Bulge, read-out: Kd (nM) ± SD

B1: G4P: Polypeptide probe: two RHAU23 G4-binding domains, linker of three GTGSGA hexapeptides, C-terminal 3xFLAG tag, N-terminal HIS tag; SEQ ID NO: 4 (protein)
chain: MGSSHHHHHHSSGLVPRGSHMHPGHLKGREIGMWYAKKQGQKNKGTGSGAGTGSGAGTGSGAHPGHLKGREIGMWYAKKQGQKNKGTGSGADYKDHDGDYKDHDIDYKDDDDK
modifications: Fully synthetic
Kd: 0.74 ± 0.05 nM
